According to patent US20250197448A1 (UNIVERSITY OF ROCHESTER, published 2025):
Starred links: 1 amine or outer side, 2 acyl side, 3 side chain; linkers in the order of their positions; H or OH if unused. Positions of bridges follow the written chain, without caps; N, C: chain ends. Non-standard residues stand in square brackets, D forms with d. Primed or numbered codes have the meaning given here. No end group written: not given here. O2beY = O-(2-bromoethyl)-tyrosine (p-2beF), reacts with Cys to form a thioether, O=C([C@H](Cc1ccc(OCCBr)cc1)N[*:1])[*:2]; pCaaF″ = p-(2-chloro-acetamido)-phenylalanine, thioether-linked to Cys, O=C(C[*:3])Nc1ccc(C[C@H](N[*:1])C(=O)[*:2])cc1; pCaaF = p-(2-chloroacetamido)-phenylalanine, O=C(CCl)Nc1ccc(C[C@H](N[*:1])C(=O)[*:2])cc1

Legend:
[1] = biological target: T1, PD-L1 (Programmed Death-Ligand 1), recombinant, His-tagged (human, UniProt Q9NZQ7 18-134, limits assumed); test: plate binding assay with immobilised PD-L1
T1 construct: Immobilised on microtiter plates
Description: After washing (3×150 μL of PBS with 0.05% Tween-20), each well was incubated with 100 μL of purified FLAG-tagged cyclopeptibody at varying concentrations for 1 hour at room temperature. After washing three times with wash buffer, each well was incubated with 100 μL of 1:2500 dilution of HRP-conjugate mouse anti-FLAG polyclonal antibody (Sigma-Aldrich) for 1 hour at room temperature. After washing three times with wash buffer, 100 μL of 2.2 mM o-phenylenediamine dihydrochloride, 4.2 mM urea hydrogen peroxide, 100 mM dibasic sodium phosphate, and 50 mM sodium citrate, pH 5.0, were added to each well, followed by measurement of the absorbance at 450 nm after 10-20 min using a Tecan Infinite 1000 plate reader. Equilibrium dissociation constants (Kp) were determined by fitting the dose-response curves to a 1:1 binding isotherm equation via nonlinear regression. using SigmaPlot. Mean values and standard deviations were calculated from experiments performed in triplicate.
To illustrate this aspect of the invention, a series of PD-L1 targeting cyclopeptibodies were prepared by introducing variable spacer sequences between the cyclic peptide and Fc domain in the PD-L1-targeting cyclopeptibody cRK10-Tras-Fc (Table 1, Entries 31-34; FIG. 20). The spacer sequences included a more flexible (-GSGSGS-), more rigid (-PAPAP-; -EAAAK-) or longer linker (Q12) compared to the exa-glutamine (Q6) spacer sequence in cyclopeptibody cRK10-Tras-Fc.

streptavidin [2] = biological target: T2, streptavidin (UniProt P22629 37-163, limits assumed); test: plate binding assay on streptavidin-coated plates
Sonic Hedgehog (Shh) = Sonic Hedgehog (Shh) (human, UniProt Q15465 24-197, limits assumed); test: plate binding assay: immobilised Shh, FLAG-tagged binder titrated, HRP anti-FLAG detection
[3] = biological target: T3, Kelch-like ECH-associated protein 1 (Keap1) (human, UniProt Q14145 321-609, limits assumed); test: plate binding assay with immobilised Keap1
Description: Keap1 Binding Assay. For the Keap1 binding assay, Keap1 was immobilized on microtiter plates by incubating 100 μL of a 4 μM protein solution in PBS buffer overnight at 4° C., followed by washing (3×150 μL of PBS with 0.5% Tween-20) and blocking with 0.5% bovine serum albumin in PBS for 1.5 h at room temperature. After washing, each well was incubated with 100 μL of purified FLAG-tagged peptide at varying concentrations for 1 hour at room temperature. After washing three times with wash buffer, each well was incubated with 100 μL of 1:2500 dilution of HRP-conjugate mouse anti-FLAG polyclonal antibody (Sigma-Aldrich) for 1 hour at room temperature. After three washing steps with wash buffer, 100 μL of 2.2 mM o-phenylenediamine dihydrochloride, 4.2 mM urea hydrogen peroxide, 100 mM dibasic sodium phosphate, and 50 mM sodium citrate, pH 5.0, were added to each well, followed by measurement of the absorbance at 450 nm after 10-20 min using a Tecan Infinite 1000 plate reader. Equilibrium dissociation constants (KD) were determined by fitting the dose-response curves to a 1:1 binding isotherm equation via nonlinear regression using SigmaPlot. Mean values and standard deviations were calculated from experiments performed in triplicate. […]

[4] = biological target: T3, Kelch-like ECH-associated protein 1 …; test: plate binding assay: immobilised Keap1, FLAG-tagged binder titrated, HRP anti-FLAG detection, 1:1 isotherm fit
Description: (§1) Streptavidin Binding Assay. For the streptavidin binding assays, streptavidin-coated plates (Sigma-Aldrich) were used. For the Keap1, Shh and PD-L1 binding assay, target protein was immobilized on microtiter plates by incubating 100 μL of a 4 μM protein solution in PBS buffer overnight at 4° C., followed by decanting the protein solution and blocking with 0.5% bovine serum albumin in PBS for 2 h at room temperature. After washing (3×150 μL of PBS with 0.05% Tween-20), each well was incubated with 100 μL of purified FLAG-tagged cyclopeptibody at varying concentrations for 1 hour at room temperature. After washing three times with wash buffer, each well was incubated with 100 μL of 1:2500 dilution of HRP-conjugate mouse anti-FLAG polyclonal antibody (Sigma-Aldrich) for 1 hour at room temperature. After washing three times with wash buffer, 100 μL of 2.2 mM o-phenylenediamine dihydrochloride, 4.2 mM urea hydrogen peroxide, 100 mM dibasic sodium phosphate, and 50 mM sodium citrate, pH 5.0, were added to each well, followed by measurement of the absorbance at 450 nm after 10-20 min using a Tecan Infinite 1000 plate reader. Equilibrium dissociation constants (Kp) were determined by fitting the dose-response curves to a 1:1 binding isotherm equation via nonlinear regression. using SigmaPlot. Mean values and standard deviations were calculated from experiments performed in triplicate.

streptavidin [5] = biological target: T2, streptavidin; test: plate binding assay: streptavidin-coated plate, FLAG-tagged binder titrated, HRP anti-FLAG detection, 1:1 isotherm fit
From the text: The resulting cyclopeptibody (called Strep-m3-Tras-Fc) was expressed, purified, and characterized as described in Example 4. This construct was confirmed to contain the cyclic peptide constrained via O2beY/Cys thioether (i/i-8) linkage, where ‘i’ indicates the position of the non-canonical amino acid O2beY (also refereed to herein as p-2beF). The cyclopeptibody Strep-m3-Tras-Fc was then characterized for its streptavidin binding affinity using a reported in vitro binding assay (Owens et al, ACS Cent Sci. (2020); 6(3):368-381).
Streptavidin Binding Assay. For the streptavidin binding assays, streptavidin-coated plates (Sigma-Aldrich) were used. […] After washing three times with wash buffer, 100 μL of 2.2 mM o-phenylenediamine dihydrochloride, 4.2 mM urea hydrogen peroxide, 100 mM dibasic sodium phosphate, and 50 mM sodium citrate, pH 5.0, were added to each well, followed by measurement of the absorbance at 450 nm after 10-20 min using a Tecan Infinite 1000 plate reader. Equilibrium dissociation constants (Kp) were determined by fitting the dose-response curves to a 1:1 binding isotherm equation via nonlinear regression. using SigmaPlot. Mean values and standard deviations were calculated from experiments performed in triplicate.

[6] = biological target: T1, PD-L1 (Programmed Death-Ligand 1), …; test: plate binding assay: immobilised PD-L1, FLAG-tagged binder titrated, HRP anti-FLAG detection
Description: as §1

[7] = biological target: T1, PD-L1 (Programmed Death-Ligand 1), …; test: competition assay: plate-immobilised PD-L1, competitor biotinylated PD-1 (500 nM), bound PD-1 read with HRP-streptavidin
Description: as §1, with “After washing three times with wash buffer, each well was incubated with 100 μL of 1:2500 dilution of HRP-conjugate mouse anti-FLAG polyclonal antibody (Sigma-Aldrich) for 1 hour at room temperature.” left out
PD-L1 Competition Assay. […] After washing, the bound PD-1 was quantified by means of HRP-conjugate Streptavidin and colorimetric assay as described above. […]

[8] = biological target: T4, PD-L1 on the surface of MDA-MB-231 breast cancer cells (human, UniProt Q9NZQ7 19-290); test: flow cytometry on MDA-MB-231 cells, 0.09 mg/ml, FITC anti-human IgG Fc secondary
T4 construct: whole, on cells; also called PD-L1 receptor on the cancer cells
Description: The cells were then incubated with fluorescein-conjugated anti-human IgG Fc antibody and analyzed by flow cytometry. The same experiment was carried out in parallel using commercially available anti-PD-L1 antibody as positive control and various negative controls. […] Several applications for these compounds can be easily envisioned, including detection and/or staining of PD-L1 in vitro and in vivo (e.g., upon conjugation of the cyclopeptibody with a fluorescent dye, IR probe, or PET contrast agent), cell-targeted drug delivery (e.g., upon conjugation of the PD-L1-binding cyclopeptibody with a drug cargo), and use as therapeutic agents in cancer immunotherapy, among others.

T1 sequence (Q9NZQ7 18-134 limits assumed): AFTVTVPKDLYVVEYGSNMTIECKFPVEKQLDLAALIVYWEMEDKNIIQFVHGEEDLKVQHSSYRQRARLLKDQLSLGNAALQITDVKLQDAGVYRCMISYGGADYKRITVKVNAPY
T2 sequence (P22629 37-163 limits assumed): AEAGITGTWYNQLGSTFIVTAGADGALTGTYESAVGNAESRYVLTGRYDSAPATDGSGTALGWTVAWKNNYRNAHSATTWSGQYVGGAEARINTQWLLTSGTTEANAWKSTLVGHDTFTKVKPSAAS
T3 sequence (Q14145 321-609 limits assumed): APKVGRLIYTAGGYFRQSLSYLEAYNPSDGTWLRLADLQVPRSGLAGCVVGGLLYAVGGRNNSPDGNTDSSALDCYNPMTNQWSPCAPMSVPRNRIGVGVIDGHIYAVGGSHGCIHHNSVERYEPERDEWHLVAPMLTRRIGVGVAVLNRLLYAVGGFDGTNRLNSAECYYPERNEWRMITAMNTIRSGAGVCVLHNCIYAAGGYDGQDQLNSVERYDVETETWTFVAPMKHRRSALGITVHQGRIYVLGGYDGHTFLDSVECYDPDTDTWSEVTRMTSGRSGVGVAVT
T4 sequence (Q9NZQ7 19-290): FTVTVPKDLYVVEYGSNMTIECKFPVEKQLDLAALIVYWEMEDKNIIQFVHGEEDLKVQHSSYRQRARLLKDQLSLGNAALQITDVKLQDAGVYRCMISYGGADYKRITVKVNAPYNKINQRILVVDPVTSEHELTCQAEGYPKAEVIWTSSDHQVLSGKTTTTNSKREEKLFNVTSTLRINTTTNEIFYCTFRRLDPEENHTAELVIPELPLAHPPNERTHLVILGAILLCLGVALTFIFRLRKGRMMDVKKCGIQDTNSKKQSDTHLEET

B1: cyclic peptide cCLP003 (pCaaF) (peptide)
chain: WHFS[pCaaF″]NWRWLPC
modifications: thioether 5-12; not fully specified
Question: How did the Kd [1] turn out when B1 was run?
Answer: Its Kd is roughly 10000 nM.

Question: And the “fold higher affinity against the linear CLP003 peptide” value [1]?
Answer: Its value is roughly 40 fold.

B2: FLAG-cRK10-Q12-Tras-Fc-His (Fc fusion)
chain: DYKDDDDKGSGSTYLCGAISLA[pCaaF]KAQIKESLQQQQQQQQQQQQ-{Fc-H6}
modifications: thioether 16-23
notes: Spacer variant of cRK10-Tras-Fc (Q12); also called FLAG-(GS)2-TYLCGAISLAZKAQIKESL-(Q)12-(Fc)^1-H6
Question: B2 was tested. Which Kd [1] did it give?
Answer: The Kd was 237 nM.

B3: FLAG-Strep-m3-Strep-m3-Tras-Fc-His (Fc fusion)
chain: DYKDDDDKGSGSSCWWHPQGD[O2beY]GSGSENLYFQGSGSSCWWHPQGD[O2beY]IEGRGSGS-{Fc-His}
modifications: thioether 14-22, 38-46; not fully specified; also: second O2beY at Y30, thioether-linked to Cys of its own cyclic peptide
notes: Two copies of the Strep-m3 cyclic peptide in tandem on each Fc chain; also called polyvalent streptavidin-targeting cyclopeptibody
Question: With B3 as the binder, how does the Kd (streptavidin [2]) read?
Answer: The Kd was 56 nM.

B4: cyclic peptide cRK10 (pCaaF) (peptide)
chain: TYLCGAISLA[pCaaF]KAQIKESL
modifications: thioether 4-11
Question: How did the Kd [1] turn out when B4 was run?
Answer: Its Kd is 13000 nM.

B5: cyclic peptide L2-m5 alone (as CBD fusion) (peptide)
chain: TLSW[O2beY]EAMDMCTSS
modifications: thioether 5-11; also: as CBD fusion
Question: For B5, which Kd (Sonic Hedgehog (Shh)) is on record?
Answer: Its Kd is 388 nM.

B6: FLAG-KKD-m1-KKD-m1-Tras-Fc-His (Fc fusion)
chain: DYKDDDDKGSGSYDSETGECGSGSENLYFQGSGSYDSETGECIEGRGSGS
modifications: thioether (positions not given here); not fully specified (residues 13, 35, C-terminus, bridges); also: two O2beY, each thioether-linked to Cys of its own cyclic peptide, places them at C20 and L27
notes: Two copies of the KKD-m1 cyclic peptide in tandem on each Fc chain; also called polyvalent Keap1-targeting cyclopeptibody
Question: Which Kd [3] does the source give for B6 here?
Answer: Its Kd is 45 nM.

B7: KKD-m1-Tras-Fc (Fc fusion)
chain: DYKDDDDKGSGS[O2beY]DSETGECQQQQQQ-{Fc-H6}
modifications: thioether 13-20; also: dimeric through the Fc
notes: Cyclic peptide fused through a (Gln)6 spacer to human IgG1 Fc; dimeric through the Fc; made in E. coli; also called FLAG-(GS)2-ZDSETGEC-(Q)6-(Fc)^1-H6
Question: With B7 as the binder, how does the Kd [4] read?
Answer: Its Kd is 4 nM.

Question: And the “fold improved affinity against the same cyclic peptide fused to CBD” value [3]?
Answer: The value was greater than 20 fold.

B8: cyclic peptide Strep-m3 alone (as CBD fusion) (peptide)
chain: SCWWHPQGD[O2beY]
modifications: thioether 2-10; also: as CBD fusion
Question: Which Kd (streptavidin [5]) does the source give for B8 here?
Answer: Its Kd is 50 nM.

B9: cRK10 (pCaaF)-Tras-Fc (Fc fusion)
chain: DYKDDDDKGSGSTYLCGAISLA[pCaaF]KAQIKESLQQQQQQ-{Fc-H6}
modifications: thioether 16-23
notes: also called cRK10-Tras-Fc; RK10-Tras-Fc-His
Question: How did the Kd [1] turn out when B9 was run?
Answer: Its Kd is 42 nM.

Question: What about the “fold higher PD-L1 binding affinity against FLAG-cRK10-Q12-Tras-Fc-His” value [1] of the same binder?
Answer: Its value is 6 fold.

Question: What about the “fold higher binding affinity against the cyclic peptide cRK10” value [1] of the same binder?
Answer: Its value is 300 fold.

Question: What about the Kd [6] of the same binder?
Answer: Its Kd is 40 nM.

B10: cCLP003 (pCaaF)-Tras-Fc (Fc fusion)
chain: DYKDDDDKGSGSWHFS[pCaaF]NWRWLPCQQQQQQ
modifications: thioether 17-24 (inferred); not fully specified (C-terminus)
notes: also called cCLP003-Tras-Fc; cCLP003-Tras-Fc-His
Question: For B10, which IC50 [7] is on record?
Answer: Its IC50 is 6000 nM.

Question: And the “fold higher MFI against cRK10-Tras-Fc” value [8]?
Answer: The value was 4 fold.

Question: What about the “fold increase in affinity against the cyclic peptide alone” value [1] of the same binder?
Answer: The value was 40 fold.

Question: And the Kd [6]?
Answer: Its Kd is roughly 250 nM.

B11: Strep-m3-Tras-Fc (Fc fusion)
chain: DYKDDDDKGSGSSCWWHPQGD[O2beY]QQQQQQ-{Fc-H6}
modifications: thioether 14-22; also: dimeric through the Fc
notes: Cyclic peptide fused through a (Gln)6 spacer to human IgG1 Fc; dimeric through the Fc; made in E. coli; also called FLAG-(GS)2-SCWWHPQGDZ-(Q)6-(Fc)^1-H6
Question: With B11 as the binder, how does the Kd (streptavidin [5]) read?
Answer: Its Kd is 37 nM.

Question: And the “fold improved affinity against the same cyclic peptide fused to CBD” value (streptavidin [2])?
Answer: Its value is 1.3 fold.

B12: cyclic peptide KKD-m1 alone (as CBD fusion) (peptide)
chain: [O2beY]DSETGEC
modifications: thioether 1-8; also: as CBD fusion
Question: How did the Kd [4] turn out when B12 was run?
Answer: The Kd was 85 nM.
